In patent publication US20120277286A1, “COMPOSITIONS AND METHODS FOR THE TREATMENT OR PREVENTION OF MITOCHONDRIAL DISEASES” (The Government of the USA, as represented by the Secretary, …, priority 2009, published 2012):

Legend:
PINK1 = PINK1 accumulation by fractionation and immunoblotting; assay type: cell-based; conditions: HeLa cells, mitochondrial membrane fraction; 10 μM CCCP or 1 μM valinomycin
Source text: (§1) For PINK1 experiments, cells were fractionated using the Mitochondria Isolation Kit (Pierce), according to manufacturer's specifications with slight modifications. To isolate integral membrane proteins, membrane fractions obtained as above were carbonate extracted with 0.1M Na2CO3 fresh cold buffer and membranes were pelleted, as described in the supplemental methods. For Parkin experiments, cells were fractionated as described previously, with minor modifications described in the supplemental methods (Narendra (2008) J Cell Biol 183: 795-803). The following primary antibodies were used: anti-Parkin (PRK8) monoclonal (Santa Cruz), anti-Tom20 polyclonal (Santa Cruz), anti-cytochrome c monoclonal (BD Biosciences), anti-PINK1 polyclonal (Novus Biologicals), anti-VDAC monoclonal (Calbiochem), anti-GAPDH polyclonal (Sigma-Aldrich), anti-Tubulin monoclonal (Sigma-Aldrich), anti-V5 monoclonal (Invitrogen), anti-GFP polyclonal (Invitrogen).
as §1, with “with slight modifications described in the supplemental methods. To isolate” for “with slight modifications. To isolate”, “minor modifications detailed in the” for “minor modifications described in the”, “supplemental methods (Narendra (2008) J Cell Biol 183: 795-803). The protease protection assay was performed as described previously (Chen (2005) J Biol Chem 280: 26185-26192). Cells were fixed and immunostained as described previously (Narendra (2008)” for “supplemental methods (Narendra (2008)”, “anti-GFP polyclonal (Invitrogen), anti-TIM23 monoclonal (BD Biosciences), and anti-Hsp60 monoclonal (Stressgen).” for “anti-GFP polyclonal (Invitrogen).”

HeLa cells = assay: Parkin-induced mitophagy, loss of mitochondria by immunocytochemistry; assay type: cell-based; conditions: YFP-Parkin HeLa cells, 10 μM CCCP+10 mM 3-methyladenine or +100 nM Bafilomycin, 24 hours
Protocol: Cultured cells seeded in borosilicate chamber slides (Thermo Fisher Scientific) were transfected or cotransfected with YFP-Parkin, ECFP-Parkin, mCherry-Parkin, DsRed-Mito (Clontech Laboratories, Inc.), pcDNA3.1 (Invitrogen), vMIA, and/or Drp1K38A constructs using Fugene 6 (Roche). Parkin-myc was a gift from M. Cookson (National Institutes of Health, Bethesda, Md.). Cells were fixed 12-24 hours after transfection with 4% paraformaldehyde in PBS. Cells were stained with following primary antibodies: mouse monoclonal cytochrome c (BD), rabbit polyclonal Tom20 (Santa Cruz Biotechnology, Inc.), mouse monoclonal Parkin PRK8 (Santa Cruz Biotechnology, Inc.), rabbit polyclonal PMP70 (Invitrogen), and/or mouse monoclonal TRAP1 (Abcam); and with the following secondary antibodies: mouse and/or rabbit Alexa 488, 594, and 633 (Invitrogen). For assessment of mitochondrial membrane potential, cells were pulsed with 50 nM Mito-Tracker red (Invitrogen) for 15 min, washed, and incubated for an additional 10 minutes before fixation or imaging. For assessment of cell metabolic potential, cell nuclei were stained with Hoechst 33342 (Invitrogen).
(§2) Confocal microscopy of fixed samples, scoring of Parkin recruitment and Parkininduced mitophagy, and live cell imaging were performed as described previously (Narendra (2008) J Cell Biol 183: 795-803). Experiments in Mfn1/2 null cells were performed as described previously with minor modifications.
as §2, with “Parkin-induced” for “Parkininduced”, “imageing” for “imaging”, “modifications described in the supplemental methods (Narendra (2008) J Cell Biol 183: 795-803).” for “modifications.”

[1] = test system: PINK1+/+ or PINK1−/− MEFs; assay: YFP-Parkin recruitment to mitochondria in MEFs; assay type: cell-based, mouse; conditions: 20 μM CCCP, 3 hours; for reconstitution of YFP-Parkin recruitment: PINK1−/− primary MEFs co-transfected with construct
Source text: HeLa YFP-Parkin, PINK1+/+ SV40 transformed MEFs cells, PINK1−/− SV40 transformed MEF, M17 neuroblastoma control shRNA, M17 neuroblastoma PINK1, and Mfn1/2−/− MEF cell lines have been described previously (Narendra (2008) J Cell Biol 183: 795-803). PINK1+/+ and PINK1−/− primary MEFs were isolated from embryos using a standard protocol (Gautier (2008) Proc Natl Acad Sci USA 105: 11364-11369). Parkin+/+ and Parkin−/− transformed MEFs were created by isolation of primary cells from embryos of B6.129S4-Park2tm1Shn/J mice (Jackson Labs), using a standard protocol (Gautier (2008) Proc Natl Acad Sci USA 105: 11364-11369), followed by retroviral transduction of SV40 (Applied Biological Materials, Inc.). YFP-Parkin, YFPParkin mutants, mCherry-Parkin, PINK1-YFP, PINK1 KD-YFP, PINK1 Δ1-110-YFP, and Opa3-PINK1 Δ1-110-YFP are in C1 or N1 Clontech vectors. PINK1WT-V5, PINK1 KD-V5, and PINK1 Δ1-156-V5 are in pDest40 vector (Invitrogen). PINK1 patient mutations are in pLenti-V5 vector (Invitrogen). PINK1-myc is in a pCMBTNT vector (Promega).
as §2
HeLa YFP-Parkin, E18 Rat cortical neurons, PINK1^+/+ SV40 transformed MEFs cells, PINK1^−/− SV40 transformed MEF, M17 neuroblastoma control shRNA, M17 neuroblastoma PINK1, Mfn1/2^−/− MEF, and Parl^−/− MEF cell lines have been described previously (Narendra (2008) J Cell Biol 183: 795-803). PINK1^+/+ and PINK1^−/− primary MEFs were isolated from embryos using a standard protocol (Gautier (2008) Proc Natl Acad Sci USA 105: 11364-11369). Parkin^+/+ and Parkin^−/− transformed MEFs were created by isolation of primary cells from embryos of B6.129S4-Park2^tm1Shn/J mice (Jackson Labs), using a standard protocol (Gautier (2008) Proc Natl Acad Sci USA 105: 11364-11369), followed by retroviral transduction of SV40 (Applied Biological Materials, Inc.). YFP-Parkin, YFP-Parkin mutants, mCherry-Parkin, PINK1-YFP, PINK1 KD-YFP, PINK1 Δ1-110-YFP, and Opa3-PINK1 Δ1-110-YFP are in C1 or N1 Clontech vectors. PINK1WT-V5, PINK1 KD-V5, and PINK1 Δ1-156-V5 are in pDest40 vector (Invitrogen). PINK1 patient mutations are in the pLenti-V5 vector (Invitrogen). PINK1-myc is in a pCMBTNT vector (Promega). The PARL shRNA construct targeting (5′ […] 3′) is in the pSuper-GFP vector. To make FRB-PINK1 (111-581)-YFP and Tom20 (1-33)-FKBP, PCR fragments containing PINK1 (111-581)-YFP and Tom20 (1-33) were cloned into the BamHI site of the pC4-RHE vector and the EcoRI and XbaI sites of pC4M-F2E vectors, respectively (ARIAD Pharmaceuticals). The rapamycin analogue AP21967 was obtained from ARIAD Pharmaceuticals. The PARL shRNA construct targeting (5′ […] 3′) is in the pSuper-GFP vector (OligoEngine).
as §2, with “Parkin-induced” for “Parkininduced”, “imageing” for “imaging”, “modifications described in the supplemental methods (Narendra (2008) J Cell Biol 183: 795-803).” for “modifications.”

## CC(C)[C@@H]1NC(=O)[C@H](C)OC(=O)[C@@H](C(C)C)NC(=O)[C@@H](C(C)C)OC(=O)[C@H](C(C)C)NC(=O)[C@H](C)OC(=O)[C@@H](C(C)C)NC(=O)[C@@H](C(C)C)OC(=O)[C@H](C(C)C)NC(=O)[C@H](C)OC(=O)[C@@H](C(C)C)NC(=O)[C@@H](C(C)C)OC1=O [valinomycin]
PINK1
  endogenous full length PINK1 (˜63 kDa) level after depolarization: increased

## CO/C1=C\C(C)=C\[C@@H](C)[C@@H](O)[C@@H](C)C/C(C)=C/C=C/[C@H](OC)[C@@H]([C@@H](C)[C@@H](O)[C@H](C)[C@@]2(O)C[C@@H](O)[C@H](C)[C@@H](C(C)C)O2)OC1=O [bafilomycin, reference compound]
HeLa cells
  effect on Parkin-induced mitophagy: blocked

## Cn1cnc(N)c2ncnc1-2 [3-methyl adenine, reference compound]
HeLa cells
  effect on Parkin-induced mitophagy: blocked

B1: L347P: patient mutant of PINK1, V5-tagged (protein, UniProt Q9BXM7 78-581, looked up, variant L347P)
Serine/threonine-protein …: AARLQRQFVVRAWGCAGPCGRAVFLAFGLGLGLIEEKQAESRRAVSACQEIQAIFTQKSKPGPDPLDTRRLQGFRLEEYLIGQSIGKGCSAAVYEATMPTLPQNLEVTKSTGLLPGRGPGTSAPGEGQERAPGAPAFPLAIKMMWNISAGSSSEAILNTMSQELVPASRVALAGEYGAVTYRKSKRGPKQLAPHPNIIRVLRAFTSSVPLLPGALVDYPDVLPSRLHPEGLGHGRTLFLVMKNYPCTLRQYLCVNTPSPRLAAMMLLQLPEGVDHLVQQGIAHRDLKSDNILVELDPDGCPWLVIADFGCCLADESIGLQLPFSSWYVDRGGNGCLMAPEVSTARPGPRAVIDYSKADAWAVGAIAYEIFGLVNPFYGQGKAHLESRSYQEAQLPALPESVPPDVRQLVRALLQREASKRPSARVAANVLHLSLWGEHILALKNLKLDKMVGWLLQQSAATLLANRLTEKCCVETKMKMLFLANLECETLCQAALLLCSWRAAL
modifications: V5 tag
notes: patient mutant of PINK1, V5-tagged
[1]
  reconstitution of YFP-Parkin recruitment: failed to reconstitute

B2: G411S: PINK1 polymorphism, V5-tagged (protein, UniProt Q9BXM7 78-581, looked up, variant G411S)
Serine/threonine-protein …: AARLQRQFVVRAWGCAGPCGRAVFLAFGLGLGLIEEKQAESRRAVSACQEIQAIFTQKSKPGPDPLDTRRLQGFRLEEYLIGQSIGKGCSAAVYEATMPTLPQNLEVTKSTGLLPGRGPGTSAPGEGQERAPGAPAFPLAIKMMWNISAGSSSEAILNTMSQELVPASRVALAGEYGAVTYRKSKRGPKQLAPHPNIIRVLRAFTSSVPLLPGALVDYPDVLPSRLHPEGLGHGRTLFLVMKNYPCTLRQYLCVNTPSPRLAAMMLLQLLEGVDHLVQQGIAHRDLKSDNILVELDPDGCPWLVIADFGCCLADESIGLQLPFSSWYVDRGGNSCLMAPEVSTARPGPRAVIDYSKADAWAVGAIAYEIFGLVNPFYGQGKAHLESRSYQEAQLPALPESVPPDVRQLVRALLQREASKRPSARVAANVLHLSLWGEHILALKNLKLDKMVGWLLQQSAATLLANRLTEKCCVETKMKMLFLANLECETLCQAALLLCSWRAAL
modifications: V5 tag
notes: PINK1 polymorphism, V5-tagged
[1]; PINK1−/− primary MEFs expressing the PINK1 construct
  YFP-Parkin recruited to mitochondria, % of cells: 74.2±5.4%

B3: H271Q: patient mutant of PINK1, V5-tagged (protein, UniProt Q9BXM7 78-581, looked up, variant H271Q)
Serine/threonine-protein …: AARLQRQFVVRAWGCAGPCGRAVFLAFGLGLGLIEEKQAESRRAVSACQEIQAIFTQKSKPGPDPLDTRRLQGFRLEEYLIGQSIGKGCSAAVYEATMPTLPQNLEVTKSTGLLPGRGPGTSAPGEGQERAPGAPAFPLAIKMMWNISAGSSSEAILNTMSQELVPASRVALAGEYGAVTYRKSKRGPKQLAPQPNIIRVLRAFTSSVPLLPGALVDYPDVLPSRLHPEGLGHGRTLFLVMKNYPCTLRQYLCVNTPSPRLAAMMLLQLLEGVDHLVQQGIAHRDLKSDNILVELDPDGCPWLVIADFGCCLADESIGLQLPFSSWYVDRGGNGCLMAPEVSTARPGPRAVIDYSKADAWAVGAIAYEIFGLVNPFYGQGKAHLESRSYQEAQLPALPESVPPDVRQLVRALLQREASKRPSARVAANVLHLSLWGEHILALKNLKLDKMVGWLLQQSAATLLANRLTEKCCVETKMKMLFLANLECETLCQAALLLCSWRAAL
modifications: V5 tag
notes: as for B1
[1]
  reconstitution of YFP-Parkin recruitment: failed to reconstitute

B4: A168P: patient mutant of PINK1, V5-tagged (protein, UniProt Q9BXM7 78-581, looked up, variant A168P)
Serine/threonine-protein …: AARLQRQFVVRAWGCAGPCGRAVFLAFGLGLGLIEEKQAESRRAVSACQEIQAIFTQKSKPGPDPLDTRRLQGFRLEEYLIGQSIGKGCSPAVYEATMPTLPQNLEVTKSTGLLPGRGPGTSAPGEGQERAPGAPAFPLAIKMMWNISAGSSSEAILNTMSQELVPASRVALAGEYGAVTYRKSKRGPKQLAPHPNIIRVLRAFTSSVPLLPGALVDYPDVLPSRLHPEGLGHGRTLFLVMKNYPCTLRQYLCVNTPSPRLAAMMLLQLLEGVDHLVQQGIAHRDLKSDNILVELDPDGCPWLVIADFGCCLADESIGLQLPFSSWYVDRGGNGCLMAPEVSTARPGPRAVIDYSKADAWAVGAIAYEIFGLVNPFYGQGKAHLESRSYQEAQLPALPESVPPDVRQLVRALLQREASKRPSARVAANVLHLSLWGEHILALKNLKLDKMVGWLLQQSAATLLANRLTEKCCVETKMKMLFLANLECETLCQAALLLCSWRAAL
modifications: V5 tag
notes: as for B1
[1]
  reconstitution of YFP-Parkin recruitment: failed to reconstitute
